Reference: the Immune Epitope Database (IEDB)
Blank lines part the entries; values can stand above or below the sequence they belong to.

Experiments:
[1] = molecular target: HLA-A*02:01; assay: IEDB peptide-MHC binding, purified MHC/competitive/fluorescence; filed as Kd, often an IC50 or EC50 that approximates it; ≥ and ≤ were set here for values at or beyond the usual limits of such assays; details: source organism: Vibrio cholerae 2740-80
[2] = molecular target: HLA-A*02:03; assay: as above; details: source organism: Vibrio cholerae 2740-80
[3] = molecular target: HLA-A*02:12; assay: as above; details: source organism: Vibrio cholerae 2740-80
[4] = molecular target: HLA-A*02:16; assay: as above; details: source organism: Vibrio cholerae 2740-80
[5] = molecular target: HLA-A*02:19; assay: as above; details: source organism: Vibrio cholerae 2740-80
[6] = molecular target: HLA-A*03:01; assay: as above; details: source organism: Vibrio cholerae 2740-80
[7] = molecular target: HLA-A*24:03; assay: as above; details: source organism: Vibrio cholerae 2740-80
[8] = molecular target: HLA-A*25:01; assay: as above; details: source organism: Vibrio cholerae 2740-80
[9] = molecular target: HLA-A*26:01; assay: as above; details: source organism: Vibrio cholerae 2740-80
[10] = molecular target: HLA-B*27:03; assay: as above; details: source organism: Vibrio cholerae 2740-80
[11] = molecular target: HLA-B*46:01; assay: as above; details: source organism: Vibrio cholerae 2740-80
[12] = molecular target: HLA-B*51:01; assay: as above; details: source organism: Vibrio cholerae 2740-80
[13] = molecular target: HLA-B*57:01; assay: as above; details: source organism: Vibrio cholerae 2740-80
[14] = molecular target: HLA-A*01:01; assay: IEDB peptide-MHC binding, purified MHC/competitive/fluorescence; ≥ and ≤ were set here for values at or beyond the usual limits of such assays
[15] = molecular target: HLA-A*02:01; assay: as above
[16] = molecular target: HLA-A*03:01; assay: as above
[17] = molecular target: HLA-A*11:01; assay: as above
[18] = molecular target: HLA-A*24:02; assay: as above
[19] = molecular target: HLA-A*25:01; assay: as above
[20] = molecular target: HLA-A*29:02; assay: as above
[21] = molecular target: HLA-A*31:01; assay: as above
[22] = molecular target: HLA-A*68:02; assay: as above
[23] = molecular target: HLA-B*07:02; assay: as above
[24] = molecular target: HLA-B*08:01; assay: as above
[25] = molecular target: HLA-B*14:02; assay: as above
[26] = molecular target: HLA-B*18:01; assay: as above
[27] = molecular target: HLA-B*35:01; assay: as above
[28] = molecular target: HLA-B*37:01; assay: as above
[29] = molecular target: HLA-B*40:02; assay: as above
[30] = molecular target: HLA-B*44:03; assay: as above
[31] = molecular target: HLA-B*51:01; assay: as above
[32] = molecular target: HLA-B*53:01; assay: as above
[33] = molecular target: HLA-B*58:01; assay: as above
[34] = molecular target: HLA-B*40:01; assay: IEDB peptide-MHC binding, purified MHC/competitive/radioactivity; ≥ and ≤ were set here for values at or beyond the usual limits of such assays; details: source organism: Human papillomavirus 16
[35] = molecular target: HLA-A*24:02; assay: as above; details: source organism: Homo sapiens
[36] = molecular target: HLA-B*15:17; assay: IEDB peptide-MHC binding, purified MHC/direct/fluorescence; filed as Kd, often an IC50 or EC50 that approximates it; ≥ and ≤ were set here for values at or beyond the usual limits of such assays; details: source organism: Escherichia coli O157:H7
[37] = molecular target: HLA-B*57:01; assay: as above; details: source organism: Escherichia coli O157:H7
[38] = molecular target: HLA-B*58:01; assay: as above; details: source organism: Escherichia coli O157:H7
[39] = molecular target: HLA-C*04:01; assay: as above; details: source organism: Escherichia coli O139:H28 str. E24377A
[40] = molecular target: HLA-C*05:01; assay: as above; details: source organism: Giardia lamblia ATCC 50803
[41] = molecular target: HLA-C*06:02; assay: as above; details: source organism: Giardia lamblia ATCC 50803
[42] = molecular target: HLA-A*68:23; assay: IEDB peptide-MHC binding, purified MHC/competitive/fluorescence; filed as Kd, often an IC50 or EC50 that approximates it; ≥ and ≤ were set here for values at or beyond the usual limits of such assays; details: source organism: Giardia lamblia ATCC 50803
[43] = molecular target: HLA-B*15:42; assay: as above; details: source organism: Giardia lamblia ATCC 50803
[44] = molecular target: HLA-B*45:06; assay: as above; details: source organism: Giardia lamblia ATCC 50803
[45] = molecular target: HLA-B*73:01; assay: as above; details: source organism: Giardia lamblia ATCC 50803
[46] = molecular target: HLA-B*83:01; assay: as above; details: source organism: Giardia lamblia ATCC 50803
[47] = molecular target: HLA-C*04:01; assay: as above; details: source organism: Giardia lamblia ATCC 50803
[48] = molecular target: HLA-C*14:02; assay: as above; details: source organism: Giardia lamblia ATCC 50803
[49] = source organism: Ateles geoffroyi

Sequence: HSYLWDHQM
Kd [1]: ≥ 20 µM | Kd [2]: ≥ 20 µM | Kd [3]: ≥ 20 µM | Kd [4]: ≥ 20 µM | Kd [5]: ≥ 20 µM | Kd [6]: ≥ 20 µM | Kd [7]: ≥ 20 µM | Kd [8]: ≥ 20 µM | Kd [9]: ≥ 20 µM | Kd [10]: ≥ 20 µM | Kd [11]: ≥ 20 µM | Kd [12]: ≥ 20 µM | Kd [13]: 0.0547 µM

IC50 ([14]; source organism: Homo sapiens): ≥ 20 µM | IC50 ([15]; source organism: Homo sapiens): 0.0939 µM | IC50 ([16]; source organism: Homo sapiens): ≥ 20 µM | IC50 ([17]; source organism: Homo sapiens): ≥ 20 µM | IC50 ([18]; source organism: Homo sapiens): ≥ 20 µM | IC50 ([19]; source organism: Homo sapiens): ≥ 20 µM | IC50 ([20]; source organism: Homo sapiens): 13.2 µM | IC50 ([21]; source organism: Homo sapiens): ≥ 20 µM | IC50 ([22]; source organism: Homo sapiens): ≥ 20 µM | IC50 ([23]; source organism: Homo sapiens): ≥ 20 µM | IC50 ([24]; source organism: Homo sapiens): ≥ 20 µM | IC50 ([25]; source organism: Homo sapiens): ≥ 20 µM | IC50 ([26]; source organism: Homo sapiens): ≥ 20 µM | IC50 ([27]; source organism: Homo sapiens): ≥ 20 µM | IC50 ([28]; source organism: Homo sapiens): ≥ 20 µM | IC50 ([29]; source organism: Homo sapiens): 0.995 µM | IC50 ([30]; source organism: Homo sapiens): ≥ 20 µM | IC50 ([31]; source organism: Homo sapiens): ≥ 20 µM | IC50 ([32]; source organism: Homo sapiens): ≥ 20 µM | IC50 ([33]; source organism: Homo sapiens): ≥ 20 µM
Sequence: ILNRETLLDFV

IC50 [14, 49]: ≥ 20 µM | IC50 [15, 49]: ≥ 20 µM | IC50 [16, 49]: ≥ 20 µM | IC50 [17, 49]: ≥ 20 µM | IC50 [18, 49]: ≥ 20 µM | IC50 [19, 49]: ≥ 20 µM | IC50 [20, 49]: 1.09 µM | IC50 [21, 49]: ≥ 20 µM | IC50 [22, 49]: 0.818 µM | IC50 [23, 49]: 0.134 µM | IC50 [24, 49]: ≥ 20 µM | IC50 [25, 49]: 14.5 µM | IC50 [26, 49]: ≥ 20 µM | IC50 [27, 49]: 0.006 µM | IC50 [28, 49]: ≥ 20 µM | IC50 [29, 49]: 3.3 µM | IC50 [30, 49]: ≥ 20 µM | IC50 [31, 49]: 1.62 µM | IC50 [32, 49]: 1.61 µM | IC50 [33, 49]: ≥ 20 µM
Sequence: LPADPASVL

Sequence: SEYRHYCYSL
IC50 [34]: 0.00054 µM

IC50 [35]: 0.197 µM
Sequence: TYSVSFDSL

Sequence: YMWECPDFF
Kd [36]: 0.157 µM | Kd [37]: 1.44 µM | Kd [38]: ≥ 5 µM | Kd [39]: 0.137 µM

Sequence: YPFHIFYPV
Kd [40]: ≥ 20 µM | Kd [41]: ≥ 20 µM | Kd [42]: 0.0431 µM | Kd [43]: ≥ 5 µM | Kd [44]: 4.7 µM | Kd [45]: 1.33 µM | Kd [46]: 0.137 µM | Kd [47]: ≥ 5 µM | Kd [48]: 0.189 µM
